Laboratory results as given in publication PMC9709061, “HSP90-CDC37-PP5 forms a structural platform for kinase dephosphorylation” (Nature Communications, 2022).

Tests used:
[1] = biological target: T1, BRAF^V600E (human, UniProt P15056 1-766, V600E, phosphorylated as purified: Ser151, Ser339, Ser365, Thr401, Ser429, Ser432, Ser446, Ser614, Ser675, Ser729, Ser750, Thr753 (mass spectrometry; pSer729 also by western blot)); test: cryo-EM structure; HSP90–CDC37–BRAF^V600E complex incubated with PP5 D274N, purified by SEC, cross-linked with 1 mM BS3; one sample gave three classes: HCK (3.4 Å), HCK-P open (4.2 Å), HCK-P closed (3.9 Å); PP5 modelled by rigid-body docking; conditions: both partners purified
T1 construct: human BRAF, full length (84 kDa), oncogenic V600E mutant; A 3C site lies between protein and tag; no cleavage step is described; also called kinase client; not shown: 2xStrep, N-terminal, kept

[2] = biological target: T2, HSP90β (human, UniProt P08238 1-724, phosphorylation at Ser226 and Ser255 found by mass spectrometry); test: as above; conditions: both partners purified
T2 construct: human HSP90β, full length; A 3C protease site lies between protein and tag; no cleavage step is described; Captured on Talon resin during the co-purification; source: co-purified (Talon, Streptactin, Superdex S200); not shown: His8, N-terminal, kept
T2 sequence (P08238 whole entry): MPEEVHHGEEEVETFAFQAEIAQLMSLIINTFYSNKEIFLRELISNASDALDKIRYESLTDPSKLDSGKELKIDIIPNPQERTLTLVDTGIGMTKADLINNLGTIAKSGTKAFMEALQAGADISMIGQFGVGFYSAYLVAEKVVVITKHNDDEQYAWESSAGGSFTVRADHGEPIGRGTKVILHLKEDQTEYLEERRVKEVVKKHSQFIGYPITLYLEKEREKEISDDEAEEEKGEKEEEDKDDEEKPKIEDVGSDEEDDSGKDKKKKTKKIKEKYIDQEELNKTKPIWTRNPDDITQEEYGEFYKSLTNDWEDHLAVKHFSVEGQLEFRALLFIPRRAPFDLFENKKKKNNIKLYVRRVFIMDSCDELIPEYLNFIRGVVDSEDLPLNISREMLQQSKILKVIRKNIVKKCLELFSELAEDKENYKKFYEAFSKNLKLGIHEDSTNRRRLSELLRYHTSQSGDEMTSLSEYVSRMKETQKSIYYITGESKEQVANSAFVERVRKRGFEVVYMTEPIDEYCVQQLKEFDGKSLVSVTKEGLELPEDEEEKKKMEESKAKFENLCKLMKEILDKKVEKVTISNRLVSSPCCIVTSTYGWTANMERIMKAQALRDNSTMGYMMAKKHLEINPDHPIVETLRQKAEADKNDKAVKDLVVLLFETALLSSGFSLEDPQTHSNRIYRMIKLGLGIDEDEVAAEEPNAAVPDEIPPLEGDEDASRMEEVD

T1 sequence (P15056 whole entry V600E): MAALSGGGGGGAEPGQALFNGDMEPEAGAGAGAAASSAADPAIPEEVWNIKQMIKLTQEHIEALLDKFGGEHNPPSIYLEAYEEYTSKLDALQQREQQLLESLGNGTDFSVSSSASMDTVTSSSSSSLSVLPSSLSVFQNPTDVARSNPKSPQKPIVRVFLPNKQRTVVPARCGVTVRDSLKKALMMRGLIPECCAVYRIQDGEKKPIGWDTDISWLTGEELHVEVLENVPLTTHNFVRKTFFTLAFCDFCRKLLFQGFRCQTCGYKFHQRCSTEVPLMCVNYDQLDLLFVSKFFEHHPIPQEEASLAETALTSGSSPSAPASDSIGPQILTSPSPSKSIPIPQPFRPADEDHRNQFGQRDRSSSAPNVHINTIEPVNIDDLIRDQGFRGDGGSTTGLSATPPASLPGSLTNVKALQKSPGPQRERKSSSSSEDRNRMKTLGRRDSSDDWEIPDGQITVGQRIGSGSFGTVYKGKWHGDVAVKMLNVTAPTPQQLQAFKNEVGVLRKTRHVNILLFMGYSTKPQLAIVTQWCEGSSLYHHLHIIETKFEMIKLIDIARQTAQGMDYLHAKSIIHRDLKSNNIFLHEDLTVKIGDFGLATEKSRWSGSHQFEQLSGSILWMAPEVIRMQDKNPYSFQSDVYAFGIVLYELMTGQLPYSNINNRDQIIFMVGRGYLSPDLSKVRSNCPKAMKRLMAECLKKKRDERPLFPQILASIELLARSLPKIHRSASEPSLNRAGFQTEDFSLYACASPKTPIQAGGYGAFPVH

binding result [1]: binds
binding result [2]: binds
B1: PP5 D274N (enzyme, human, UniProt P53041 16-499, looked up)
chain: RDEPPADGALKRAEELKTQANDYFKAKDYENAIKFYSQAIELNPSNAIYYGNRSLAYLRTECYGYALGDATRAIELDKKYIKGYYRRAASNMALGKFRAALRDYETVVKVKPHDKDAKMKYQECNKIVKQKAFERAIAGDEHKRSVVDSLDIESMTIEDEYSGPKLEDGKVTISFMKELMQWYKDQKKLHRKCAYQILVQVKEVLSKLSTLVETTLKETEKITVCGDTHGQFYDLLNIFELNGLPSETNPYIFNGDFVNRGSFSVEVILTLFGFKLLYPDHFHLLRGNHETDNMNQIYGFEGEVKAKYTAQMYELFSEVFEWLPLAQCINGKVLIMHGGLFSEDGVTLDDIRKIERNRQPPDSGPMCDLLWSDPQPQNGRSISKRGVSCQFGPDVTKAFLEENNLDYIIRSHEVKAEGYEVAHGGRCVTVFSAPNYCDQMGNKASYIHLQGSDLRPQFHQFTAVPHPNVKPMAYANTLLQLGMM
notes: human PP5 (serine/threonine protein phosphatase 5), residues 16-499, D274N; also called catalytically dead PP5
